Results as given in patent US20180022794A1 (INSERM INSTITUT NATIONAL DE LA SANTE ET DE LA RECHERCHE …, published 2018).

B1: 5SNP48 hs2dAb (VHH)
VHH: VQLQASGGGFVQPGGSLRLSCAASGTSWFTEVMGWFRQAPGKEREFVSAISGLHDVGTYYADSVKGRFTISRDNSKNTVYLQMNSLRAEDTATYYCAALDKWYTKAMDARKDYWGQGTQVTVSS
B2: 5SNP65 hs2dAb (VHH)
VHH: VQLQASGGGFVQPGGSLRLSCAASGATYEGEAMGWFRQAPGKEREFVSAISSYPSVISYYADSVKGRFTISRDNSKNTVYLQMNSLRAEDTATYYCAYWVNHEGTIREIYWGQGTQVTVSS
B3: 4SNP61 hs2dAb (VHH)
VHH: VQLQASGGGFVQPGGSLRLSCAASGFTSTSTVMGWFRQAPGKEREFVSAISSAHTMDTYYADSVKGRFTISRDNSKNTVYLQMNSLRAEDTATYYCAPAPMLGQMITQPALPYWGQGTQVTVSS
B4: B6 hs2dAb (VHH)
VHH: VQLQASGGGFVQPGGSLRLSCAASGYGSTIETMGWFRQAPGKEREFVSAISRAPGPSQYYADSVKGRFTISRDNSKNTVYLQMNSLRAEDTATYYCAPINNRTMQDSMFLWNYWGQGTQVTVSS
notes: also called hs2dAb B6
B5: H12 hs2dAb (VHH)
VHH: VQLQASGGGFVQPGGSLRLSCAASGDGSRIYAMGWFRQAPGKEREFVSAISWEQDWEHYYADSVKGRFTISRDNSKNTVYLQMNSLRAEDTATYYCAAFMTPHRNLTSMYWGQGTQVTVSS
notes: Humanized synthetic single domain antibody; Soluble form was used in ELISA and immunofluorescence and detected through a myc tag; also called clone H12; H12 antibody

These binders were tested against T1, RhoA Q63L (UniProt P61586 1-190, limits assumed) (assay: binding kinetics, method not stated (Table 1)).
T1 construct: also called RhoA Q63L (2SHA); constitutively active RhoA mutant
T1 sequence (P61586 1-190 Q63L limits assumed): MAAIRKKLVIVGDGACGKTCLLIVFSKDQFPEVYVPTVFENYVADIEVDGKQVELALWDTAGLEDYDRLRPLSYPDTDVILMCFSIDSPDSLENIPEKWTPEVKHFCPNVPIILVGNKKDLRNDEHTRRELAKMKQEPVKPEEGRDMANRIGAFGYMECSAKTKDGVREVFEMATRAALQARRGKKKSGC

Binder	Kd [nM]	koff [s⁻¹]	kon [M⁻¹ s⁻¹]
B1	0.84	0.000686	814000
B2	0.6	0.000522	870000
B3	1.21	0.0013	1.1e+06
B4	1.31	0.0008	1.05e+06

Each binder was assayed against T2, RhoB Q63L (UniProt P62745 1-193, limits assumed) (assay: binding kinetics, method not stated (Table 1)).
T2 construct: also called RhoB Q63L (2SHA); constitutively active RhoB mutant
T2 sequence (P62745 1-193 Q63L limits assumed): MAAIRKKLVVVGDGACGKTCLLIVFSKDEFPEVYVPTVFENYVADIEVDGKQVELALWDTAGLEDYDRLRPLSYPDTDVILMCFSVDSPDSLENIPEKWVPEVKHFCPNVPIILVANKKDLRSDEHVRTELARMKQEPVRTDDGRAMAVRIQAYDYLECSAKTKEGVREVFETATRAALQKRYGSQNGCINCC

Binder	Kd [nM]	koff [s⁻¹]	kon [M⁻¹ s⁻¹]
B1	5.21	0.0024	462000
B2	2.36	0.000599	253000
B5	1.57	0.000359	224000
B3	4.68	0.0033	722000

Each binder was assayed against T3, RhoC Q63L (UniProt P08134 1-190, limits assumed) (assay: binding kinetics, method not stated (Table 1)).
T3 construct: also called RhoC Q63L (2SHA); constitutively active RhoC mutant
T3 sequence (P08134 1-190 Q63L limits assumed): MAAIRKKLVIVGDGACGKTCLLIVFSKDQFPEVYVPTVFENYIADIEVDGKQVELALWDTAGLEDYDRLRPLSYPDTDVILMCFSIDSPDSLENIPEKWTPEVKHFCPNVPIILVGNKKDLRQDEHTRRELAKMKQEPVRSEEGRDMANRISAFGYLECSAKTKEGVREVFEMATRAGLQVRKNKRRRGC

Binder	Kd [nM]	koff [s⁻¹]	kon [M⁻¹ s⁻¹]
B1	0.524	0.000901	1.72e+06
B2	0.608	0.001	1.71e+06
B3	5.3	0.0046	875000
B4	2.32	0.000625	1.45e+06

What follows are binders tested against Rac Q61L (UniProt P63000 1-189) (assay: binding kinetics, method not stated (Table 1)).

Binder	Kd [nM]	koff [s⁻¹]	kon [M⁻¹ s⁻¹]
B5	0.33	0.000255	753000
